For orientation: EC50 means the concentration that produces a half-maximal response. By Kd is commonly meant the free concentration of one partner at which half of the binding sites on the other are occupied at equilibrium, for simple one-to-one binding.

This note sets out measurements from PMC7286605.

Experiment [1] has as its target water-soluble variant of the μ-opioid receptor (wsMOR) (UniProt P35372). As to the kind of experiment: photonic crystal Fano resonance shift.
For experiment [2] the target is unchanged. As to the kind of experiment: MoS2 field-effect transistor biosensor.

Where “and” joins values, the source holds several entries; their conditions need not be identical. Identical values can stand only once.

Regarding “DAMGO ([D-Ala2, N-MePhe4, Gly-ol]-enkephalin) (peptide)”, in experiment [1], the EC50 is 1 nM and 1.2 nM; the Kd is 2.5 nM. Besides, in experiment [2], the EC50 is 1.2 nM and 1.5 nM; the Kd was 3.6 nM.
